Laboratory results: publication PMC10728100, “Structural and biochemical investigations of a HEAT-repeat protein involved in the cytosolic iron-sulfur cluster assembly pathway” (Communications Biology, 2023)
Values joined by “and” are separate entries in the source; they are usually repeats but may differ in a detail not shown here. Equal values may be shown once.

T1: SUMO-tagged ScMet18 I973A (S. cerevisiae, UniProt P40469 1-1032, I973A)
T1 construct: Met18, S. cerevisiae; substitution in HEAT-repeat 22; source: E. coli Rosetta2(DE3), purified (Ni-NTA, gel filtration); not shown: His, N-terminal, kept; SUMO, N-terminal, kept
T1 sequence: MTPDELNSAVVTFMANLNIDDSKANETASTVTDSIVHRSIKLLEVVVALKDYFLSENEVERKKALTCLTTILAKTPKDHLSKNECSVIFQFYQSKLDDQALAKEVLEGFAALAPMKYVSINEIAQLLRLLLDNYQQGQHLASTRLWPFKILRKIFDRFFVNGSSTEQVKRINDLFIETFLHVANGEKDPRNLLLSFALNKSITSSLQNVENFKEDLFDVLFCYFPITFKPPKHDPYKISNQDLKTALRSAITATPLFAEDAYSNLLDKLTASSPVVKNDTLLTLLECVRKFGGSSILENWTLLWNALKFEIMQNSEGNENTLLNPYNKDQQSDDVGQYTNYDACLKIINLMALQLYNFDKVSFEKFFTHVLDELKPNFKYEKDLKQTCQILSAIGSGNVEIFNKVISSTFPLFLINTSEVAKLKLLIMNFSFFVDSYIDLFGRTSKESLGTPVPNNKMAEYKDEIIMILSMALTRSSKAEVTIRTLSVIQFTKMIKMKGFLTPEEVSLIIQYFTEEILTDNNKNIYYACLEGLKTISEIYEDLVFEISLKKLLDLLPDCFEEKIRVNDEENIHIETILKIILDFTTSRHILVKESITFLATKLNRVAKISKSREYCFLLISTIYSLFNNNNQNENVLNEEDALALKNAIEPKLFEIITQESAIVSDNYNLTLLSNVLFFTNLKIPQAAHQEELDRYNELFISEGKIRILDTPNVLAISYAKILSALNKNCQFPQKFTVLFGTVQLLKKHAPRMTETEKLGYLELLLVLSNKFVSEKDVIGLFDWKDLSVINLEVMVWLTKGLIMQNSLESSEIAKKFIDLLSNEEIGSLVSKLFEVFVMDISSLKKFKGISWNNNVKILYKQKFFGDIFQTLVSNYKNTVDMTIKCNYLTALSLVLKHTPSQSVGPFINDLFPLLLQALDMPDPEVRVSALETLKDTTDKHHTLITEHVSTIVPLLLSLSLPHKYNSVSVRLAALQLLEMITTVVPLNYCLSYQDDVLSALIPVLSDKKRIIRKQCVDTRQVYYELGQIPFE

B1: SUMO-tagged ScMet18, wild type (N-terminal His-tag followed by SUMO solubility tag) (natural protein, S. cerevisiae)
chain: MTPDELNSAVVTFMANLNIDDSKANETASTVTDSIVHRSIKLLEVVVALKDYFLSENEVERKKALTCLTTILAKTPKDHLSKNECSVIFQFYQSKLDDQALAKEVLEGFAALAPMKYVSINEIAQLLRLLLDNYQQGQHLASTRLWPFKILRKIFDRFFVNGSSTEQVKRINDLFIETFLHVANGEKDPRNLLLSFALNKSITSSLQNVENFKEDLFDVLFCYFPITFKPPKHDPYKISNQDLKTALRSAITATPLFAEDAYSNLLDKLTASSPVVKNDTLLTLLECVRKFGGSSILENWTLLWNALKFEIMQNSEGNENTLLNPYNKDQQSDDVGQYTNYDACLKIINLMALQLYNFDKVSFEKFFTHVLDELKPNFKYEKDLKQTCQILSAIGSGNVEIFNKVISSTFPLFLINTSEVAKLKLLIMNFSFFVDSYIDLFGRTSKESLGTPVPNNKMAEYKDEIIMILSMALTRSSKAEVTIRTLSVIQFTKMIKMKGFLTPEEVSLIIQYFTEEILTDNNKNIYYACLEGLKTISEIYEDLVFEISLKKLLDLLPDCFEEKIRVNDEENIHIETILKIILDFTTSRHILVKESITFLATKLNRVAKISKSREYCFLLISTIYSLFNNNNQNENVLNEEDALALKNAIEPKLFEIITQESAIVSDNYNLTLLSNVLFFTNLKIPQAAHQEELDRYNELFISEGKIRILDTPNVLAISYAKILSALNKNCQFPQKFTVLFGTVQLLKKHAPRMTETEKLGYLELLLVLSNKFVSEKDVIGLFDWKDLSVINLEVMVWLTKGLIMQNSLESSEIAKKFIDLLSNEEIGSLVSKLFEVFVMDISSLKKFKGISWNNNVKILYKQKFFGDIFQTLVSNYKNTVDMTIKCNYLTALSLVLKHTPSQSVGPFINDLFPLLLQALDMPDPEVRVSALETLKDTTDKHHTLITEHVSTIVPLLLSLSLPHKYNSVSVRLIALQLLEMITTVVPLNYCLSYQDDVLSALIPVLSDKKRIIRKQCVDTRQVYYELGQIPFE
notes: Met18, S. cerevisiae; Met18 gene amplified from genomic DNA; 131 kDa with the tag; also called SUMOMet18; SUMOScMet18; source: E. coli Rosetta2(DE3), purified (Ni-NTA, gel filtration); not shown: His, N-terminal, kept; SUMO, N-terminal, kept

Experiments:
[1] = target: T1, SUMO-tagged ScMet18 I973A; assay: pull-down; as the ScCia2 bait pull-down, but ScLeu1 and ScCia1 included in addition to the SUMO-tagged ScMet18 variant and the strep-tagged ScCia2 bait; Strep-Tactin XT resin; SDS-PAGE; details: both partners purified
[2] = target: B1; assay: as above; details: both partners purified
[3] = target: the molecule itself; assay: cryo-EM structure; Vitrobot-plunged grids; untagged ScMet18 at 1.2 mg/mL (9 µM) in 50 mM HEPES pH 7.5, 100 mM NaCl, 1% glycerol, 1 mM BME, 33 mM sodium acetate; 10 °C; D3 symmetry
[4] = target: the molecule itself; assay: cryo-EM structure; chameleon-prepared grids; untagged ScMet18 at 2 µg/µL (15 µM) in 50 mM Tris pH 8.0, 100 mM NaCl, 1% glycerol, 1 mM BME; 24 °C
[5] = target: the molecule itself; assay: mass photometry; ScMet18 alone (SUMO-tagged or untagged) at 0.050 µM in 50 mM Tris pH 8.0, 100 mM NaCl, 1% glycerol, 5 mM BME

Binder	binding result [1]	binding result [2]	stoichiometry N [3]	stoichiometry N [4]	stoichiometry N [5]
ScLeu1 with N-terminal His tag (natural protein, S. cerevisiae, UniProt P07264 1-779, looked up, Leu1, isopropylmalate isomerase, S. cerevisiae; also called HisLeu1; source: purified) MVYTPSKGPRTLYDKVFDAHVVHQDENGSFLLYIDRHLVHEVTSPQAFEGLENAGRKVRRVDCTLATVDHNIPTESRKNFKSLDTFIKQTDSRLQVKTLENNVKQFGVPYFGMSDARQGIVHTIGPEEGFTLPGTTVVCGDSHTSTHGAFGSLAFGIGTSEVEHVLATQTIIQAKSKNMRITVNGKLSPGITSKDLILYIIGLIGTAGGTGCVIEFAGEAIEALSMEARMSMCNMAIEAGARAGMIKPDETTFQYTKGRPLAPKGAEWEKAVAYWKTLKTDEGAKFDHEINIEAVDVIPTITWGTSPQDALPITGSVPDPKNVTDPIKKSGMERALAYMGLEPNTPLKSIKVDKVFIGSCTNGRIEDLRSAAAVVRGQKLASNIKLAMVVPGSGLVKKQAEAEGLDKIFQEAGFEWREAGCSICLGMNPDILDAYERCASTSNRNFEGRQGALSRTHLMSPAMAAAAGIAGHFVDIREFEYKDQDQSSPKVEVTSEDEKELESAAYDHAEPVQPEDAPQDIANDELKDIPVKSDDTPAKPSSSGMKPFLTLEGISAPLDKANVDTDAIIPKQFLKTIKRTGLKKGLFYEWRFRKDDQGKDQETDFVLNVEPWREAEILVVTGDNFGCGSSREHAPWALKDFGIKSIIAPSYGDIFYNNSFKNGLLPIRLDQQIIIDKLIPIANKGGKLCVDLPNQKILDSDGNVLVDHFEIEPFRKHCLVNGLDDIGITLQKEEYISRYEALRREKYSFLEGGSKLLKFDNVPKRKAVTTTFDKVHQDW	binds	binds	–	–	–
untagged ScMet18 (S. cerevisiae Met18, His-SUMO tag removed by SUMO protease) (natural protein, Met18 (MMS19 in humans), S. cerevisiae; Met18 gene amplified from genomic DNA; 118 kDa; model holds residues 9-225, 242-314 and 338-1029; Mixture of monomers, dimers, tetramers and hexamers in solution; hexamer and tetramer by cryo-EM; also called SUMO-cleaved ScMet18; source: E. coli Rosetta2(DE3), purified (Ni-NTA, gel filtration; tag cut with SUMO protease, Ni-NTA flow through); not shown: …) MTPDELNSAVVTFMANLNIDDSKANETASTVTDSIVHRSIKLLEVVVALKDYFLSENEVERKKALTCLTTILAKTPKDHLSKNECSVIFQFYQSKLDDQALAKEVLEGFAALAPMKYVSINEIAQLLRLLLDNYQQGQHLASTRLWPFKILRKIFDRFFVNGSSTEQVKRINDLFIETFLHVANGEKDPRNLLLSFALNKSITSSLQNVENFKEDLFDVLFCYFPITFKPPKHDPYKISNQDLKTALRSAITATPLFAEDAYSNLLDKLTASSPVVKNDTLLTLLECVRKFGGSSILENWTLLWNALKFEIMQNSEGNENTLLNPYNKDQQSDDVGQYTNYDACLKIINLMALQLYNFDKVSFEKFFTHVLDELKPNFKYEKDLKQTCQILSAIGSGNVEIFNKVISSTFPLFLINTSEVAKLKLLIMNFSFFVDSYIDLFGRTSKESLGTPVPNNKMAEYKDEIIMILSMALTRSSKAEVTIRTLSVIQFTKMIKMKGFLTPEEVSLIIQYFTEEILTDNNKNIYYACLEGLKTISEIYEDLVFEISLKKLLDLLPDCFEEKIRVNDEENIHIETILKIILDFTTSRHILVKESITFLATKLNRVAKISKSREYCFLLISTIYSLFNNNNQNENVLNEEDALALKNAIEPKLFEIITQESAIVSDNYNLTLLSNVLFFTNLKIPQAAHQEELDRYNELFISEGKIRILDTPNVLAISYAKILSALNKNCQFPQKFTVLFGTVQLLKKHAPRMTETEKLGYLELLLVLSNKFVSEKDVIGLFDWKDLSVINLEVMVWLTKGLIMQNSLESSEIAKKFIDLLSNEEIGSLVSKLFEVFVMDISSLKKFKGISWNNNVKILYKQKFFGDIFQTLVSNYKNTVDMTIKCNYLTALSLVLKHTPSQSVGPFINDLFPLLLQALDMPDPEVRVSALETLKDTTDKHHTLITEHVSTIVPLLLSLSLPHKYNSVSVRLIALQLLEMITTVVPLNYCLSYQDDVLSALIPVLSDKKRIIRKQCVDTRQVYYELGQIPFE	–	–	6	6 and 4	2
B1	–	–	–	–	2 and 4 and 6
